The values that follow come from patent US20210139548A1 (published 2021).

*1 amine or outer side, *2 acyl side, *3 side chain or, on linkers, in order; H or OH if unused. Side-chain parts run from the residue outwards. The star is where a group is joined. C18 diacid = O=C(O)CCCCCCCCCCCCCCCCC(=O)*; γGlu = O=C(O)[C@H](CCC(=O)[*:2])N[*:1]; Isovaleryl = CC(C)CC(=O)*; AEEA = NCCOCCOCC(=O)O

The experiment has as its target T1, human neuropeptide Y2 receptor (human, UniProt P49146 1-381).
T1 construct: whole, on cells; also called hNPY2 receptor; hNPY2-R
T1 sequence (looked up): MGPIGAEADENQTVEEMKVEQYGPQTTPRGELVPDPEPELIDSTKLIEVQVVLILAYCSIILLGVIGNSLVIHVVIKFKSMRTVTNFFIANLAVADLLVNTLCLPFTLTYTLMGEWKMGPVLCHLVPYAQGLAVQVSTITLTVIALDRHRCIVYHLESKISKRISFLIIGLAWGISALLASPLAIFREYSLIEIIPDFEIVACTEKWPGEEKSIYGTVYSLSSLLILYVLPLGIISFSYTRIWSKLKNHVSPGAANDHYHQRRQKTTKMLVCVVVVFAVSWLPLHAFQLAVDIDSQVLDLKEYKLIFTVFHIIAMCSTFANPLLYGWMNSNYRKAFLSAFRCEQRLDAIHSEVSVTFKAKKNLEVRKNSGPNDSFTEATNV
In words: radioligand competition (125I-PYY(1-36)), hNPY2R membranes. The gist of the method: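 Commercial human Y2 receptor membranes (0.5 μg protein/well) were incubated with peptide for 2 h at room temperature in 50 mM HEPES, 5 mM MgCl₂, 1 mM CaCl₂, pH 7.4, with 0.2% ovalbumin. Bound radioligand was separated on PEI-soaked GF/C filters and counted by scintillation, and IC₅₀ came from nonlinear sigmoidal regression.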
A general note: Loss of bound radioactivity is the signal in a displacement assay; it reports binding, not function.

B1: Compound 169 (peptide)
peptide: Isovaleryl-APEK([AEEA-AEEA-γGlu-C18 diacid])PEEEASPEELQRYYVALRHYYNWLTRQRY-NH2
SMILES: CC(C)CC(=O)N[C@@H](C)C(=O)N1CCC[C@H]1C(=O)N[C@@H](CCC(=O)O)C(=O)N[C@@H](CCCCNC(=O)COCCOCCNC(=O)COCCOCCNC(=O)CC[C@H](NC(=O)CCCCCCCCCCCCCCCCC(=O)O)C(=O)O)C(=O)N1CCC[C@H]1C(=O)N[C@@H](CCC(=O)O)C(=O)N[C@@H](CCC(=O)O)C(=O)N[C@@H](CCC(=O)O)C(=O)N[C@@H](C)C(=O)N[C@@H](CO)C(=O)N1CCC[C@H]1C(=O)N[C@@H](CCC(=O)O)C(=O)N[C@@H](CCC(=O)O)C(=O)N[C@@H](CC(C)C)C(=O)N[C@@H](CCC(N)=O)C(=O)N[C@@H](CCCNC(=N)N)C(=O)N[C@@H](Cc1ccc(O)cc1)C(=O)N[C@@H](Cc1ccc(O)cc1)C(=O)N[C@H](C(=O)N[C@@H](C)C(=O)N[C@@H](CC(C)C)C(=O)N[C@@H](CCCNC(=N)N)C(=O)N[C@@H](Cc1c[nH]cn1)C(=O)N[C@@H](Cc1ccc(O)cc1)C(=O)N[C@@H](Cc1ccc(O)cc1)C(=O)N[C@@H](CC(N)=O)C(=O)N[C@@H](Cc1c[nH]c2ccccc12)C(=O)N[C@@H](CC(C)C)C(=O)N[C@H](C(=O)N[C@@H](CCCNC(=N)N)C(=O)N[C@@H](CCC(N)=O)C(=O)N[C@@H](CCCNC(=N)N)C(=O)N[C@@H](Cc1ccc(O)cc1)C(N)=O)[C@@H](C)O)C(C)C
For orientation: Ki means the dissociation constant of the complex between target and ligand, obtained from inhibition or displacement. High values mean lower affinity, low ones higher affinity. As to B1, the Ki amounted to 2.34 nM.

B2: Compound 170 (peptide)
peptide: Isovaleryl-APEK([AEEA-AEEA-γGlu-C18 diacid])PEEEASPEELEQYYVSLRHYYNWLTRQRY-NH2
SMILES: CC(C)CC(=O)N[C@@H](C)C(=O)N1CCC[C@H]1C(=O)N[C@@H](CCC(=O)O)C(=O)N[C@@H](CCCCNC(=O)COCCOCCNC(=O)COCCOCCNC(=O)CC[C@H](NC(=O)CCCCCCCCCCCCCCCCC(=O)O)C(=O)O)C(=O)N1CCC[C@H]1C(=O)N[C@@H](CCC(=O)O)C(=O)N[C@@H](CCC(=O)O)C(=O)N[C@@H](CCC(=O)O)C(=O)N[C@@H](C)C(=O)N[C@@H](CO)C(=O)N1CCC[C@H]1C(=O)N[C@@H](CCC(=O)O)C(=O)N[C@@H](CCC(=O)O)C(=O)N[C@@H](CC(C)C)C(=O)N[C@@H](CCC(=O)O)C(=O)N[C@@H](CCC(N)=O)C(=O)N[C@@H](Cc1ccc(O)cc1)C(=O)N[C@@H](Cc1ccc(O)cc1)C(=O)N[C@H](C(=O)N[C@@H](CO)C(=O)N[C@@H](CC(C)C)C(=O)N[C@@H](CCCNC(=N)N)C(=O)N[C@@H](Cc1c[nH]cn1)C(=O)N[C@@H](Cc1ccc(O)cc1)C(=O)N[C@@H](Cc1ccc(O)cc1)C(=O)N[C@@H](CC(N)=O)C(=O)N[C@@H](Cc1c[nH]c2ccccc12)C(=O)N[C@@H](CC(C)C)C(=O)N[C@H](C(=O)N[C@@H](CCCNC(=N)N)C(=O)N[C@@H](CCC(N)=O)C(=O)N[C@@H](CCCNC(=N)N)C(=O)N[C@@H](Cc1ccc(O)cc1)C(N)=O)[C@@H](C)O)C(C)C
B2: the Ki amounted to 12.3 nM.
